Data published in US20210252150A1.
Read-outs that look alike come from different tables or passages of the source.

Key:
[1] = target: HA of A/Netherlands/219/2003 (H7N7) (influenza A virus (H7N7)); test: ELISA
[2] = target: HA of A/Shanghai/2/2013 (H7N9) (influenza A virus (H7N9)); test: ELISA
[3] = target: HA of A/Indonesia/5/2005 (H5N1) (influenza A virus (H5N1)); test: ELISA
[4] = target: HA of A/shearwater/Western Australia/2576/1979 (H15N9) (influenza A virus (H15N9)); test: ELISA
[5] = target: HA of A/Texas/50/2012 (H3N2) (influenza A virus (H3N2)); test: ELISA
[6] = target: HA of A/Solomon Islands/03/2006 (H1N1) (influenza A virus (H1N1)); test: ELISA
[7] = target: HA of A/Switzerland/9715293/2013 (H3) (influenza A virus (H3)); test: ELISA
[8] = target: HA of A/Texas/36/1991 (H1N1) (influenza A virus (H1N1)); test: ELISA
[9] = target: HA of A/Hong Kong/1073/99 (H9) (influenza A virus (H9)); test: ELISA
[10] = target: HA of A/mallard duck/Astrakhan/263/1982 (H14N5) (influenza A virus (H14N5)); test: ELISA
[11] = target: HA of A/Shanghai/2/2013 (H7N9) (influenza A virus (H7N9)); test: ELISA; remark: listed apart in the source
[12] = target: HA of A/Indonesia/5/2005 (H5N1) (influenza A virus (H5N1)); test: ELISA; remark: listed apart in the source
[13] = target: HA of A/Minnesota/11/10 (H3) (influenza A virus (H3)); test: ELISA
[14] = target: HA of A/Texas/50/2012 (H3N2) (influenza A virus (H3N2)); test: ELISA; remark: listed apart in the source
[15] = target: HA of A/Solomon Islands/03/2006 (H1N1) (influenza A virus (H1N1)); test: ELISA; remark: listed apart in the source
[16] = target: HA of A/New York/107/2003 (H7N2) (influenza A virus (H7N2)); test: ELISA
[17] = target: HA of A/gull/Maryland/704/1977 (H13) (influenza A virus (H13)); test: ELISA
[18] = target: HA of A/black-headed gull/Sweden/4/1999 (H16) (influenza A virus (H16)); test: ELISA
[19] = target: HA of A/Switzerland/9715293/2013 (H3) (influenza A virus (H3)); test: ELISA; remark: listed apart in the source
[20] = target: HA of A/Texas/36/1991 (H1N1) (influenza A virus (H1N1)); test: ELISA; remark: listed apart in the source
[21] = target: HA of A/Vietnam/1203/2004 (H5N1) (influenza A virus (H5N1)); test: ELISA
[22] = target: HA of A/Hong Kong/1073/99 (H9) (influenza A virus (H9)); test: ELISA; remark: listed apart in the source
[23] = target: HA of A/mallard duck/Astrakhan/263/1982 (H14N5) (influenza A virus (H14N5)); test: ELISA; remark: listed apart in the source
[24] = target: dimeric recombinant soluble FcγRIIIa (CD16a), V176 (UniProt P08637)
Sequence of dimeric recombinant soluble FcγRIIIa (CD16a), V176 (P08637 17-208 F176V limits assumed): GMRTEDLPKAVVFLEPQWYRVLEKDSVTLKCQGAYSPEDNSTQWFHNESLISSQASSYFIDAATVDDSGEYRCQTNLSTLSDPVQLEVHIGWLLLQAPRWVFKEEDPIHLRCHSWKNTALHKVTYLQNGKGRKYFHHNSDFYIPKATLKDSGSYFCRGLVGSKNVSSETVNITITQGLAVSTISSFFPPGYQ

[25] = target: HA of A/Netherlands/219/2003 (H7N7) (influenza A virus (H7N7)); test: ELISA, recombinant HA
[26] = target: HA of A/shearwater/Western Australia/2576/1979 (H15N9) (influenza A virus (H15N9)); test: ELISA, recombinant HA
[27] = target: HA of A/Fort Monthouth/1947 (H1N1) (influenza A virus (H1N1)); test: ELISA, recombinant HA
[28] = target: HA of A/Taiwan/2/2013 (H6) (Influenza A virus A/Taiwan/2/2013 (H6)); test: ELISA, recombinant HA
[29] = target: HA of A/chicken/Germany/N/1948 (H10N7) (influenza A virus (H10N7)); test: ELISA, recombinant HA
[30] = target: HA of A/Netherlands/219/2003 (H7N7) (influenza A virus (H7N7)); test: ELISA, recombinant HA; remark: listed apart in the source
[31] = target: HA of A/Shanghai/2/2013 (H7N9) (influenza A virus (H7N9)); test: ELISA, recombinant HA
[32] = target: HA of A/Indonesia/5/2005 (H5N1) (influenza A virus (H5N1)); test: ELISA, recombinant HA
[33] = target: HA of A/shearwater/Western Australia/2576/1979 (H15N9) (influenza A virus (H15N9)); test: ELISA, recombinant HA; remark: listed apart in the source
[34] = target: HA of A/Fort Monthouth/1947 (H1N1) (influenza A virus (H1N1)); test: ELISA, recombinant HA; remark: listed apart in the source
[35] = target: HA of A/Texas/50/2012 (H3N2) (influenza A virus (H3N2)); test: ELISA, recombinant HA
[36] = target: HA of A/duck/Memphis/546/1974 (H11) (Influenza A virus A/duck/Memphis/546/1974 (H11)); test: ELISA, recombinant HA
[37] = target: HA of A/Solomon Islands/03/2006 (H1N1) (influenza A virus (H1N1)); test: ELISA, recombinant HA
[38] = target: HA of A/California/07/2004 (H3) (Influenza A virus A/California/07/2004 (H3)); test: ELISA, recombinant HA
[39] = target: HA of A/Taiwan/2/2013 (H6) (Influenza A virus A/Taiwan/2/2013 (H6)); test: ELISA, recombinant HA; remark: listed apart in the source
[40] = target: HA of A/turkey/Ontario/6118/1967 (H8) (Influenza A virus A/turkey/Ontario/6118/1967 (H8)); test: ELISA, recombinant HA
[41] = target: HA of A/Texas/36/1991 (H1N1) (influenza A virus (H1N1)); test: ELISA, recombinant HA
[42] = target: HA of A/Vietnam/1203/2004 (H5N1) (influenza A virus (H5N1)); test: ELISA, recombinant HA
[43] = target: HA of A/chicken/Germany/N/1948 (H10N7) (influenza A virus (H10N7)); test: ELISA, recombinant HA; remark: listed apart in the source
[44] = target: HA of A/Hong Kong/1073/99 (H9) (influenza A virus (H9)); test: ELISA, recombinant HA
[45] = target: HA of A/mallard duck/Astrakhan/263/1982 (H14N5) (influenza A virus (H14N5)); test: ELISA, recombinant HA
[46] = target: dimeric recombinant soluble FcγRIIIa (CD16a), V176 (UniProt P08637); remark: listed apart in the source
[47] = target: HA of A/Shanghai/2/2013 (H7N9) (influenza A virus (H7N9)); test: ELISA, recombinant HA; remark: listed apart in the source
[48] = target: HA of A/Indonesia/5/2005 (H5N1) (influenza A virus (H5N1)); test: ELISA, recombinant HA; remark: listed apart in the source
[49] = target: HA of A/Texas/50/2012 (H3N2) (influenza A virus (H3N2)); test: ELISA, recombinant HA; remark: listed apart in the source
[50] = target: HA of A/Solomon Islands/03/2006 (H1N1) (influenza A virus (H1N1)); test: ELISA, recombinant HA; remark: listed apart in the source
[51] = target: HA of A/Switzerland/9715293/2013 (H3) (influenza A virus (H3)); test: ELISA, recombinant HA
[52] = target: HA of A/Texas/36/1991 (H1N1) (influenza A virus (H1N1)); test: ELISA, recombinant HA; remark: listed apart in the source
[53] = target: HA of A/Hong Kong/1073/99 (H9) (influenza A virus (H9)); test: ELISA, recombinant HA; remark: listed apart in the source
[54] = target: HA of A/mallard duck/Astrakhan/263/1982 (H14N5) (influenza A virus (H14N5)); test: ELISA, recombinant HA; remark: listed apart in the source
[55] = target: HA of A/black-headed gull/Sweden/4/1999 (H16) (influenza A virus (H16)); test: ELISA, recombinant HA
[56] = target: HA of A/Indonesia/5/2005 (H5N1) (influenza A virus (H5N1)); test: BLI, Fab on immobilized biotinylated HA
[57] = target: HA of A/Victoria/361/2011 (H3N2) (influenza A virus (H3N2)); test: BLI, Fab on immobilized biotinylated HA
[58] = target: HA of A/Solomon Islands/03/2006 (H1N1) (influenza A virus (H1N1)); test: BLI, Fab on immobilized biotinylated HA
[59] = target: HA of A/Vietnam/1203/2004 (H5N1) (influenza A virus (H5N1)); test: BLI, Fab on immobilized biotinylated HA

“FluA-20 (hybridoma-produced IgG) (antibody)” was tested, and the EC50 [1] was 0.05 µg/mL, the EC50 [2] was 0.12 µg/mL and the EC50 [3] was 6.05 µg/mL. It also gave an EC50 [4] of 0.08 µg/mL, an EC50 [5] of 0.09 µg/mL and an EC50 [6] of 0.05 µg/mL. For the same substance, the EC50 [7] was 0.55 µg/mL, the EC50 [8] was 0.05 µg/mL and the EC50 [9] was 0.41 µg/mL. For the same substance, the EC50 [10] was 0.95 µg/mL, the EC50 [11] was 0.066 µg/mL and the EC50 [12] was 0.085 µg/mL. The EC50 [13] was > 10 µg/mL, the EC50 [14] was 0.004 µg/mL and the EC50 [15] was 0.005 µg/mL. For the same substance, the EC50 [16] was 0.808 µg/mL, the EC50 [17] was 0.07 µg/mL and the EC50 [18] was > 10 µg/mL. It also gave an EC50 [19] of 0.019 µg/mL, an EC50 [20] of 0.004 µg/mL and an EC50 [21] of 0.283 µg/mL. For the same substance, the EC50 [22] was 0.009 µg/mL, the EC50 [23] was 0.013 µg/mL and the EC50 (read off the curve) [24] was 0.3 µg/mL. It also gave an EC50 [25] of 0.029 µg/mL, an EC50 [26] of 0.015 µg/mL and an EC50 [27] of 0.012 µg/mL. The EC50 [28] was 0.147 µg/mL, the EC50 [29] was 0.031 µg/mL and the EC50 [30] was 0.006 µg/mL. The EC50 [31] was 0.012 µg/mL, the EC50 [32] was 0.016 µg/mL and the EC50 [33] was 0.007 µg/mL. The EC50 [34] was 0.007 µg/mL, the EC50 [35] was 0.006 µg/mL and the EC50 [36] was 0.072 µg/mL. It also gave an EC50 [37] of 0.008 µg/mL, an EC50 [38] of 0.008 µg/mL and an EC50 [39] of 0.061 µg/mL. It also gave an EC50 [40] of 0.005 µg/mL, an EC50 [41] of 0.009 µg/mL and an EC50 [42] of 0.142 µg/mL. It also gave an EC50 [43] of 0.037 µg/mL, an EC50 [44] of 0.007 µg/mL and an EC50 [45] of 0.007 µg/mL. The EC50 (read off the curve) [46] was 0.3 µg/mL.

“rFluA-20 (recombinant FluA-20 IgG) (antibody)” was tested, and the EC50 [1] was 0.005 µg/mL, the EC50 [2] was 0.013 µg/mL and the EC50 [3] was 0.016 µg/mL. It also gave an EC50 [4] of 0.007 µg/mL, an EC50 [5] of 0.007 µg/mL and an EC50 [6] of 0.008 µg/mL. It also gave an EC50 [8] of 0.008 µg/mL, an EC50 [9] of 0.007 µg/mL and an EC50 [10] of 0.007 µg/mL. It also gave an EC50 [25] of 0.054 µg/mL, an EC50 [47] of 0.117 µg/mL and an EC50 [48] of 6.05 µg/mL. For the same substance, the EC50 [26] was 0.136 µg/mL, the EC50 [27] was 0.02 µg/mL and the EC50 [49] was 0.086 µg/mL. The EC50 [50] was 0.047 µg/mL, the EC50 [28] was 0.229 µg/mL and the EC50 [51] was 0.548 µg/mL. The EC50 [52] was 0.046 µg/mL, the EC50 [29] was 0.129 µg/mL and the EC50 [53] was 0.407 µg/mL. For the same substance, the EC50 [54] was 0.071 µg/mL, the EC50 [34] was 0.007 µg/mL and the EC50 [36] was 0.076 µg/mL. It also gave an EC50 [38] of 0.009 µg/mL, an EC50 [39] of 0.063 µg/mL and an EC50 [40] of 0.005 µg/mL. For the same substance, the EC50 [42] was 0.133 µg/mL and the EC50 [43] was 0.041 µg/mL.

In the case of CR6261 (antibody), the EC50 [32] is reported as 0.026 µg/mL, the EC50 [33] is reported as 0.061 µg/mL and the EC50 [34] is reported as 0.043 µg/mL. It also gave an EC50 [37] of 0.013 µg/mL, an EC50 [55] of 0.245 µg/mL and an EC50 [39] of 0.048 µg/mL. The EC50 [41] was 0.025 µg/mL and the EC50 [42] was 0.031 µg/mL.

With FluA-20 Fab the Kd [56] was 88 nM, the Kd [57] was 15 nM and the Kd [58] was 2 nM. For the same substance, the Kd [59] was 122 nM.
